Experimental findings from patent US20110237518A1 (ONCOTHERAPY SCIENCE, published 2011) are described below.

In assay [1] the target is T1, FLAG-tagged ZNF224 (ZNF224-FLAG), pCAGGSc-ZNF224-FLAG (human, UniProt Q9NZL3 1-707).
T1 construct: Whole open reading frame of ZNF224 in frame with a C-terminal FLAG-tag, expressed in UM-UC-3 or COS7 cells; also called exogenous ZNF224; not shown: C-terminal FLAG-tag from the pCAGGScFLAG vector
As to the kind of experiment: co-IP with anti-HA antibody from co-transfected Cos7 cells. As for the experimental part: (§1) To confirm the interaction between DEPDC1 and ZNF224 in bladder cancer cells and identify the ZNF224-binding region in DEPDC1, the immunoprecipitation experiment was carried out as follows. First, it was confirmed interaction between endogenous DEPDC1 and exogenous ZNF224 by immunoprecipitation experiments using anti-DEPDC1 polyclonal antibody for immunoprecipitation and anti-FLAGM2 antibody (Amersham) for immunoblotting. To further determine the ZNF224-binding region in DEPDC1, it was cloned six partial constructs of DEPDC1 (DEPDC1₁₋₁₄₇, DEPDC1₁₄₁₋₃₀₀, DEPDC1₁₇₇₋₅₉₇, DEPDC1₃₀₀₋₆₆₉, DEPDC1₅₈₇₋₇₄₀ and DEPDC1₆₅₄₋₈₁₁) into appropriate sites of COOH-terminal HA-tagged pCAGGS vector. The nucleotide sequence of each clones were determined with an ABI Prism 3700 DNA sequencer (Applied Biosystems, Foster City, Calif.), using each primer. Cell extracts from Cos7 cell line, transfected with each of plasmids expressing one of these six partial segments of DEPDC1, were precleared by incubation at 4 degrees C. for 1 hour with 100 micro 1 of protein G-agarose beads in final volumes of 2 mL of immunoprecipitation buffer (0.5% NP40, 50 mmol/L Tris-HCl, 150 mmol/L NaCl) in the presence of proteinase inhibitor. After centrifugation at 1,000 rpm for 5 minutes at 4 degrees C., the supernatants were incubated at 4 degrees C. with anti-HA rat for 1 hours. […]

In assay [2] the target is T1, FLAG-tagged ZNF224 (ZNF224-FLAG), …. Description: co-IP with anti-HA rat antibody from co-transfected Cos7 cells. The method, then:
as §1

T1 sequence (Q9NZL3 whole entry M118V/H562R): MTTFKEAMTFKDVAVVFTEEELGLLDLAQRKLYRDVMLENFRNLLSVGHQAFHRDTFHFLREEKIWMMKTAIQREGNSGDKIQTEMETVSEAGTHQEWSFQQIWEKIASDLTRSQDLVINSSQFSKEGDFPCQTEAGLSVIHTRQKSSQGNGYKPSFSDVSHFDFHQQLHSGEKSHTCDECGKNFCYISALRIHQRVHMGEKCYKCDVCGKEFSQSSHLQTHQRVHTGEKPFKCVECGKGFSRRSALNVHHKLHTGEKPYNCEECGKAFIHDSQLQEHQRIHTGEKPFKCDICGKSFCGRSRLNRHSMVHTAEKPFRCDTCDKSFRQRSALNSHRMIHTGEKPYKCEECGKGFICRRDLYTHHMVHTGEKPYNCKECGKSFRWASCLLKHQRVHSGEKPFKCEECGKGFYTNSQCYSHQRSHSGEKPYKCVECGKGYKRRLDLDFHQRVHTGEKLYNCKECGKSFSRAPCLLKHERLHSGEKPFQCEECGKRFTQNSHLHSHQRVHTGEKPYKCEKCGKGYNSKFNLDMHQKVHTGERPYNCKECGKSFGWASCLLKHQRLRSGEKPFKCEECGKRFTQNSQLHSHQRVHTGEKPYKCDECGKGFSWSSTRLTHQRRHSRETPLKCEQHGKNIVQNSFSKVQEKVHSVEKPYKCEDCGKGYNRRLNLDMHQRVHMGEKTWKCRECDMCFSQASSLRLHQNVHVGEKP

B1: DEPDC1 1-147, COOH-terminal HA-tagged partial construct (other)
chain: MESQGVPPGPYRATKLWNEVTTSFRAGMPLRKHRQHFKKYGNCFTAGEAVDWLYDLLRNNSNFGPEVTRQQTIQLLRKFLKNHVIEDIKGRWGSENVDDNNQLFRFPATSPLKTLPRRYPELRKNNIENFSKDKDSIFKLRNLSRRT
notes: not shown: C-terminal HA-tag from pCAGGScHA vector
B1: the binding result in assay [1] is listed as “no binding”.

B2: DEPDC1 177-597, COOH-terminal HA-tagged partial construct (other)
chain: DNRELSQEDVEEVWRYVILIYLQTILGVPSLEEVINPKQVIPQYIMYNMANTSKRGVVILQNKSDDLPHWVLSAMKCLANWPRSNDMNNPTYVGFERDVFRTIADYFLDLPEPLLTFEYYELFVNILVVCGYITVSDRSSGIHKIQDDPQSSKFLHLNNLNSFKSTECLLLSLLHREKNKEESDSTERLQISNPGFQERCAKKMQLVNLRNRRVSANDIMGGSCHNLIGLSNMHDLSSNSKPRCCSLEGIVDVPGNSSKEASSVFHQSFPNIEGQNNKLFLESKPKQEFLLNLHSEENIQKPFSAGFKRTSTLTVQDQEELCNGKCKSKQLCRSQSLLLRSSTRRNSYINTPVAEIIMKPNVGQGSTSVQTAMESELGESSATINKRLCKSTIELSENSLLPASSMLTGTQSLLQPHLERV
notes: as for B1
In the case of B2, the binding result in assay [1] is “no binding”.

B3: DEPDC1 300-669, COOH-terminal HA-tagged partial construct (other)
chain: VNILVVCGYITVSDRSSGIHKIQDDPQSSKFLHLNNLNSFKSTECLLLSLLHREKNKEESDSTERLQISNPGFQERCAKKMQLVNLRNRRVSANDIMGGSCHNLIGLSNMHDLSSNSKPRCCSLEGIVDVPGNSSKEASSVFHQSFPNIEGQNNKLFLESKPKQEFLLNLHSEENIQKPFSAGFKRTSTLTVQDQEELCNGKCKSKQLCRSQSLLLRSSTRRNSYINTPVAEIIMKPNVGQGSTSVQTAMESELGESSATINKRLCKSTIELSENSLLPASSMLTGTQSLLQPHLERVAIDALQLCCLLLPPPNRRKLQLLMRMISRMSQNVDMPKLHDAMGTRSLMIHTFSRCVLCCAEEVDLDELLAG
notes: The forward primer carries an added ACCATG, so an extra start Met may precede residue 300; not shown: C-terminal HA-tag from pCAGGScHA vector
For B3, in assay [2], the binding result is reported as “binds”.

B4: DEPDC1 587-740, COOH-terminal HA-tagged partial construct (other)
chain: QSLLQPHLERVAIDALQLCCLLLPPPNRRKLQLLMRMISRMSQNVDMPKLHDAMGTRSLMIHTFSRCVLCCAEEVDLDELLAGRLVSFLMDHHQEILQVPSYLQTAVEKHLDYLKKGHIENPGDGLFAPLPTYSYCKQISAQEFDEQKVSTSQA
notes: The forward primer carries an added ACCATG, so an extra start Met may precede residue 587; not shown: C-terminal HA-tag from pCAGGScHA vector
On to B4, for which the binding result in assay [2] is reported as “binds”.
